Reference: the array DNA melting data of Ke et al.

Experiment: melting temperature; melt of duplexes
Conditions: sodium 0.0675 M; strand 1 µM

Row | Substance | Tm
1 | CGACGTGCGAAATGTGCTG+CAGCACATCGAGCACGTCG ((((((((...((((((((+))))))))...)))))))) | 55.9 °C
2 | CGACGTGCGAAATGTGCTG+CAGCACATCGGGCACGTCG ((((((((...((((((((+))))))))...)))))))) | 48.6 °C
3 | CGACGTGCGAAATGTGCTG+CAGCACATCGTGCACGTCG ((((((((...((((((((+))))))))...)))))))) | 44.7 °C
4 | CGACGTGCGAAATGTGCTG+CAGCACATCTGGCACGTCG ((((((((.(.((((((((+)))))))).).)))))))) | 50.6 °C
5 | CGACGTGCGAAATGTGCTG+CAGCACATGAAGCACGTCG ((((((((...((((((((+))))))))...)))))))) | 59.3 °C
6 | CGACGTGCGAAATGTGCTG+CAGCACATGGAGCACGTCG ((((((((...((((((((+))))))))...)))))))) | 60.7 °C
7 | CGACGTGCGAAATGTGCTG+CAGCACATGGGGCACGTCG ((((((((...((((((((+))))))))...)))))))) | 52 °C
8 | CGACGTGCGAAATGTGCTG+CAGCACATTATGCACGTCG ((((((((..(((((((((+)))))))))..)))))))) | 53.6 °C
9 | CGACGTGCGAAATGTGCTG+CAGCACATTCGGCACGTCG ((((((((..(((((((((+)))))))))..)))))))) | 53.7 °C
10 | CGACGTGCGAAATGTGCTG+CAGCACATTCTGCACGTCG ((((((((..(((((((((+)))))))))..)))))))) | 53.7 °C
11 | CGACGTGCGAAATGTGCTG+CAGCACATTGGGCACGTCG ((((((((..(((((((((+)))))))))..)))))))) | 54.5 °C
12 | CGACGTGCGAAATGTGCTG+CAGCACATTTCGCACGTCG (((((((((((((((((((+))))))))))))))))))) | 64.7 °C
13 | CGACGTGCGACATGTGCTG+CAGCACATAAAGCACGTCG ((((((((...((((((((+))))))))...)))))))) | 55.2 °C
14 | CGACGTGCGACATGTGCTG+CAGCACATAACGCACGTCG (((((((((..((((((((+))))))))..))))))))) | 54.2 °C
15 | CGACGTGCGACATGTGCTG+CAGCACATACTGCACGTCG ((((((((...((((((((+))))))))...)))))))) | 49.9 °C
16 | CGACGTGCGACATGTGCTG+CAGCACATAGAGCACGTCG ((((((((...((((((((+))))))))...)))))))) | 56.3 °C
17 | CGACGTGCGACATGTGCTG+CAGCACATAGTGCACGTCG ((((((((...((((((((+))))))))...)))))))) | 48.8 °C
18 | CGACGTGCGACATGTGCTG+CAGCACATCAAGCACGTCG ((((((((...((((((((+))))))))...)))))))) | 52.6 °C
19 | CGACGTGCGACATGTGCTG+CAGCACATCACGCACGTCG (((((((((..((((((((+))))))))..))))))))) | 52.7 °C
20 | CGACGTGCGACATGTGCTG+CAGCACATCCAGCACGTCG ((((((((...((((((((+))))))))...)))))))) | 50.4 °C
21 | CGACGTGCGACATGTGCTG+CAGCACATCCCGCACGTCG (((((((((..((((((((+))))))))..))))))))) | 52.3 °C
22 | CGACGTGCGACATGTGCTG+CAGCACATCCGGCACGTCG ((((((((...((((((((+))))))))...)))))))) | 48.9 °C
23 | CGACGTGCGACATGTGCTG+CAGCACATCTCGCACGTCG ((((((((((.((((((((+)))))))).)))))))))) | 55.4 °C
24 | CGACGTGCGACATGTGCTG+CAGCACATCTGGCACGTCG ((((((((.(.((((((((+)))))))).).)))))))) | 49 °C

Row | Substance | Tm
25 | CGACGTGCGACATGTGCTG+CAGCACATGAGGCACGTCG ((((((((..(((((((((+)))))))))..)))))))) | 55.3 °C
26 | CGACGTGCGACATGTGCTG+CAGCACATGCTGCACGTCG ((((((((..(((((((((+)))))))))..)))))))) | 54.7 °C
27 | CGACGTGCGACATGTGCTG+CAGCACATGGAGCACGTCG ((((((((..(((((((((+)))))))))..)))))))) | 63.5 °C
28 | CGACGTGCGACATGTGCTG+CAGCACATGGCGCACGTCG (((((((((.(((((((((+))))))))).))))))))) | 65.2 °C
29 | CGACGTGCGACATGTGCTG+CAGCACATGGTGCACGTCG ((((((((..(((((((((+)))))))))..)))))))) | 57.3 °C
30 | CGACGTGCGACATGTGCTG+CAGCACATGTCGCACGTCG (((((((((((((((((((+))))))))))))))))))) | 67.2 °C
31 | CGACGTGCGACATGTGCTG+CAGCACATTATGCACGTCG ((((((((...((((((((+))))))))...)))))))) | 50.1 °C
32 | CGACGTGCGACATGTGCTG+CAGCACATTCAGCACGTCG ((((((((...((((((((+))))))))...)))))))) | 52.4 °C
33 | CGACGTGCGACATGTGCTG+CAGCACATTCCGCACGTCG (((((((((..((((((((+))))))))..))))))))) | 53.6 °C
34 | CGACGTGCGACATGTGCTG+CAGCACATTCTGCACGTCG ((((((((...((((((((+))))))))...)))))))) | 51.3 °C
35 | CGACGTGCGACATGTGCTG+CAGCACATTTAGCACGTCG ((((((((.(.((((((((+)))))))).).)))))))) | 52.2 °C
36 | CGACGTGCGAGATGTGCTG+CAGCACATAATGCACGTCG ((((((((...((((((((+))))))))...)))))))) | 52 °C
37 | CGACGTGCGAGATGTGCTG+CAGCACATACAGCACGTCG ((((((((...((((((((+))))))))...)))))))) | 52.6 °C
38 | CGACGTGCGAGATGTGCTG+CAGCACATATAGCACGTCG ((((((((.(.((((((((+)))))))).).)))))))) | 54.6 °C
39 | CGACGTGCGAGATGTGCTG+CAGCACATCAAGCACGTCG ((((((((..(((((((((+)))))))))..)))))))) | 58.6 °C
40 | CGACGTGCGAGATGTGCTG+CAGCACATCACGCACGTCG (((((((((.(((((((((+))))))))).))))))))) | 61.4 °C
41 | CGACGTGCGAGATGTGCTG+CAGCACATCATGCACGTCG ((((((((..(((((((((+)))))))))..)))))))) | 56.7 °C
42 | CGACGTGCGAGATGTGCTG+CAGCACATCCTGCACGTCG ((((((((..(((((((((+)))))))))..)))))))) | 55.6 °C
43 | CGACGTGCGAGATGTGCTG+CAGCACATCGCGCACGTCG (((((((((.(((((((((+))))))))).))))))))) | 62.5 °C
44 | CGACGTGCGAGATGTGCTG+CAGCACATCTGGCACGTCG ((((((((.((((((((((+)))))))))).)))))))) | 59 °C
45 | CGACGTGCGAGATGTGCTG+CAGCACATGACGCACGTCG (((((((((..((((((((+))))))))..))))))))) | 53.2 °C
46 | CGACGTGCGAGATGTGCTG+CAGCACATGATGCACGTCG ((((((((...((((((((+))))))))...)))))))) | 53.2 °C
47 | CGACGTGCGAGATGTGCTG+CAGCACATGGTGCACGTCG ((((((((...((((((((+))))))))...)))))))) | 48.5 °C
48 | CGACGTGCGAGATGTGCTG+CAGCACATTATGCACGTCG ((((((((...((((((((+))))))))...)))))))) | 51.6 °C

Row | Substance | Tm
49 | CGACGTGCGAGATGTGCTG+CAGCACATTGGGCACGTCG ((((((((...((((((((+))))))))...)))))))) | 51.9 °C
50 | CGACGTGCGAGATGTGCTG+CAGCACATTTGGCACGTCG ((((((((.(.((((((((+)))))))).).)))))))) | 52.5 °C
51 | CGACGTGCGATATGTGCTG+CAGCACATAATGCACGTCG ((((((((..(((((((((+)))))))))..)))))))) | 54 °C
52 | CGACGTGCGATATGTGCTG+CAGCACATAGCGCACGTCG (((((((((.(((((((((+))))))))).))))))))) | 61.3 °C
53 | CGACGTGCGATATGTGCTG+CAGCACATATAGCACGTCG ((((((((.((((((((((+)))))))))).)))))))) | 57.5 °C
54 | CGACGTGCGATATGTGCTG+CAGCACATATCGCACGTCG (((((((((((((((((((+))))))))))))))))))) | 64.1 °C
55 | CGACGTGCGATATGTGCTG+CAGCACATCAGGCACGTCG ((((((((...((((((((+))))))))...)))))))) | 49.5 °C
56 | CGACGTGCGATATGTGCTG+CAGCACATCATGCACGTCG ((((((((...((((((((+))))))))...)))))))) | 50.1 °C
57 | CGACGTGCGATATGTGCTG+CAGCACATCCTGCACGTCG ((((((((...((((((((+))))))))...)))))))) | 49.5 °C
58 | CGACGTGCGATATGTGCTG+CAGCACATCGCGCACGTCG (((((((((..((((((((+))))))))..))))))))) | 53.6 °C
59 | CGACGTGCGATATGTGCTG+CAGCACATCGTGCACGTCG ((((((((...((((((((+))))))))...)))))))) | 44.3 °C
60 | CGACGTGCGATATGTGCTG+CAGCACATCTCGCACGTCG ((((((((((.((((((((+)))))))).)))))))))) | 57.2 °C
61 | CGACGTGCGATATGTGCTG+CAGCACATGAAGCACGTCG ((((((((...((((((((+))))))))...)))))))) | 56.1 °C
62 | CGACGTGCGATATGTGCTG+CAGCACATGATGCACGTCG ((((((((...((((((((+))))))))...)))))))) | 53.8 °C
63 | CGACGTGCGATATGTGCTG+CAGCACATGCCGCACGTCG (((((((((..((((((((+))))))))..))))))))) | 54.8 °C
64 | CGACGTGCGATATGTGCTG+CAGCACATGCGGCACGTCG ((((((((...((((((((+))))))))...)))))))) | 50 °C
65 | CGACGTGCGATATGTGCTG+CAGCACATGCTGCACGTCG ((((((((...((((((((+))))))))...)))))))) | 49.8 °C
66 | CGACGTGCGATATGTGCTG+CAGCACATGGGGCACGTCG ((((((((...((((((((+))))))))...)))))))) | 51.3 °C
67 | CGACGTGCGATATGTGCTG+CAGCACATTACGCACGTCG (((((((((..((((((((+))))))))..))))))))) | 54.7 °C
68 | CGACGTGCGATATGTGCTG+CAGCACATTATGCACGTCG ((((((((...((((((((+))))))))...)))))))) | 52.2 °C
69 | CGACGTGCGATATGTGCTG+CAGCACATTCCGCACGTCG (((((((((..((((((((+))))))))..))))))))) | 53.8 °C
70 | CGACGTGCGATATGTGCTG+CAGCACATTCTGCACGTCG ((((((((...((((((((+))))))))...)))))))) | 51.5 °C
71 | CGACGTGCGATATGTGCTG+CAGCACATTGAGCACGTCG ((((((((...((((((((+))))))))...)))))))) | 57.2 °C
72 | CGACGTGCGATATGTGCTG+CAGCACATTGTGCACGTCG ((((((((...((((((((+))))))))...)))))))) | 47.6 °C
